Laboratory results taken from patent US20210163624A1 (Memorial Sloan Kettering, published 2021).

What was measured:
[1] = target: T1, EW peptide/HLA-A0201 complex on T2 cells (human); test: flow cytometry on T2 cells pulsed with EW peptide
T1 construct: also called Ewing sarcoma-derived peptide

[2] = target: T2, WT1-A1 heteroclitic peptide (tyrosine at position 1 of RMF)/HLA-A0201 complex on T2 cells (human); test: flow cytometry, T2 cells pulsed with WT1-A1 peptide
[3] = target: WT1A1-B peptide (…)/HLA-A0201 complex on T2 cells (human); test: flow cytometry, T2 cells pulsed with WT1-A1-B peptide
[4] = target: T3, HLA-A0201 molecule on T2 cells alone (no peptide pulsed) (human); test: flow cytometry, T2 cells without peptide (0 µg/ml point)
T3 construct: No exogenous peptide; It is also the MHC partner in the T2 stabilization assay; also called T2 alone; HLA-A2 molecule

[5] = target: T4, RHAMM-R3 peptide/HLA-A0201 complex on T2 cells (human); test: flow cytometry, T2 cells pulsed overnight with graded RHAMM-R3 peptide
T4 construct: also called RHAMM-3; R3/HLAA0201

[6] = target: T5, RMF peptide (…)/HLA-A0201 complex on the cell surface (human); test: radioimmunoassay with 125-I-labeled WT1 ab1 on JMN cells, Scatchard analysis (bivalent IgG1, avidity)
T5 construct: Either on T2 cells pulsed with the synthetic peptide, or naturally processed and presented on WT1+ HLA-A0201+ tumour cells; The assay field of each row says which; also called WT1p/A2 complex; WT1/A2

[7] = target: T3, HLA-A0201 molecule on T2 cells alone …; test: flow cytometry, scFv phage on T2 cells without peptide
[8] = target: T4, RHAMM-R3 peptide/HLA-A0201 complex on …; test: flow cytometry, scFv phage on T2 cells pulsed with RHAMM-3 peptide
[9] = target: T5, RMF peptide (…)/HLA-A0201 complex on …; test: flow cytometry, scFv phage on T2 cells pulsed with WT1A peptide
[10] = target: T4, RHAMM-R3 peptide/HLA-A0201 complex on …; test: phage ELISA on the recombinant R3/HLA-A0201 complex (R3), not on cells
[11] = target: T5, RMF peptide (…)/HLA-A0201 complex on …; test: flow cytometry, scFv phage on T2 cells pulsed with WT1A peptide; scFv phage on T2 cells pulsed with WT1-A (RMF) peptide, 50 µg/ml
[12] = target: T3, HLA-A0201 molecule on T2 cells alone …; test: flow cytometry, live T2 cells without peptide (0 µg/ml group)
[13] = target: T2, WT1-A1 heteroclitic peptide (tyrosine …); test: flow cytometry, live T2 cells pulsed with graded WT1-A1 peptide
[14] = target: T4, RHAMM-R3 peptide/HLA-A0201 complex on …; test: flow cytometry, live T2 cells pulsed with graded RHAMM-R3 peptide
[15] = target: T6, Biotinylated single chain WT1 peptide/HLA-A0201 complex (recombinant, refolded) (human, biotinylated (site not stated)); test: kinetic binding analysis, sensorgram in nm against time (sec) with fit; column kD [M]
T6 construct: also called WT1/A2; HLA-A0201/WT1 peptide complex

[16] = target: T6, Biotinylated single chain WT1 …; test: kinetic binding analysis, sensorgram in nm against time (sec) with fit; column ka [1/Ms]
[17] = target: T6, Biotinylated single chain WT1 …; test: kinetic binding analysis, sensorgram in nm against time (sec) with fit; column kd [1/s]; Error in kd 1.12E-4
[18] = target: T3, HLA-A0201 molecule on T2 cells alone …; test: T2 stabilization assay, HLA-A2 detected with mAb BB7
[19] = target: T6, Biotinylated single chain WT1 …; test: kinetic binding analysis, sensorgram in nm against time (sec) with fit; column kd [1/s]; Error in kd 2.25E-5

B1: WT1 ab1, full-length human IgG1 (antibody, V domains shown)
VH: QMQLVQSGAEVKEPGESLRISCKGSGYSFTNFWISWVRQMPGKGLEWMGRVDPGYSYSTYSPSFQGHVTISADKSTSTAYLQWNSLKASDTAMYYCARVQYSGYYDWFDPWGQGTLVTVSS
VL: not shown
notes: No single sentence says that WT1 ab1 is clone #13; also called Mab WT1 ab1; ESK1
- binding result [1]: no binding
- binding result [2]: no binding (tested: mAb concentration not on the sheet)
- binding result [3]: no binding (tested: mAb concentration not on the sheet)
- binding result [4]: no binding (tested: mAb 1 µg/ml)
- binding result [5]: no binding (tested: mAb 1 µg/ml; peptide 50 µg/ml)
- Kd [6]: ~0.2 nM

B2: scFv phage clone 3 (scFv)
scFv: QTVVTQPPSASGTPGQRVTISCSGSSSNIGSNYVYWYQQLPGTAPKLLIYRSNQRPSGVPDRFSGSKSGTSASLAISGPRSVDEADYYCAAWDDSLNGVVFGGGTKLTVLGSRGGGGSGGGGSGGGSLEMAQVQLVQSGAEVKKPGSSVKVSCKASGGTFSSYAISWVRQAPGQGLEWMGGIIPIFGTANYAQKFQGRVTITADESTSTAYMELSSLRSEDTAVYYCARRIPPYYGMDVWGQGTTVTVSS
notes: also called Ext002 #3; EXT002-3
- binding result [7]: no binding
- binding result [8]: no binding
- binding result [9]: binds

B3: scFv phage clone 23 (scFv)
scFv: QSVLTQPPSVSGAPGQRVTISCTGSSSNIGAGYDVHWYQQLPGTAPKLLIYGNSNRPSGVPDRFSGSKSGTSASLAISGLQSEDEADYYCAAWDDSLNGYVFGTGTKLTVLGSRGGGGSGGGGSGGGGSLEMAEVQLVETGGGLLQPGGSLRLSCAASGFSVSGTYMGWVRQAPGKGLEWVALLYSGGGTYHPASLQGRFIVSRDSSKNMVYLQMNSLKAEDTAVYYCAKGGAGGGHFDSWGQGTLVTVSS
notes: also called Ext002 #23; EXT002-23
- binding result [7]: no binding
- binding result [10]: no binding
- binding result [11]: binds

B4: scFv phage clone 18 (scFv)
scFv: QSVVTQPPSVSVAPGKTARITCGRNNIGSKSVHWYQQKPGQAPVLVVYDDSDRPSGIPERFSGSNSGNTATLTISRVEAGDEADYYCQVWDSSSDHVVFGGGTKLTVLGSRGGGGSGGGGSGGSLEMAEVQLVQSGGGVVRPGGSLRLSCAASGFTFDDYGMSWVRQAPGKGLEWVSGINWNGGSTGYADSVRGRFTISRDNAKNSLYLQMNSLRAEDTALYYCARERGYGYHDPHDYWGQGTLVTVSS
notes: also called Ext002 #18
- binding result [7]: no binding
- binding result [8]: no binding
- binding result [11]: binds

B5: mAb 5 (mAb clone 5) (antibody, V domains shown)
VH: QVQLQQSGPGLVKPSQTLSLTCAISGDSVSSNSAAWNWIRQSPSRGLEWLGRTYYGSKWYNDYAVSVKSRITINPDTSKNQFSLQLNSVTPEDTAVYYCARGRLGDAFDIWGQGTMVTVSS
VL: not shown
notes: The legends call it mAb 5 or mAb clone 5; also called Ext002 #5
- binding result [12]: no binding (tested: mAb concentration not on the sheet)
- binding result [13]: no binding
- binding result [14]: no binding
- Kd [15]: 11.7 nM
- kon [16]: 468000 M⁻¹ s⁻¹
- koff [17]: 0.00548 s⁻¹

B6: scFv phage clone 15 (scFv)
scFv: DIQMTQSPSTLSASVGDRVTITCRASQNINKWLAWYQQRPGKAPQLLIYKASSLESGVPSRFSGSGSGTEYTLTISSLQPDDFATYYCQQYNSYATFGQGTKVEIKRSRGGGGSGGGGSGGGGSLEMAQVQLVQSGAEVKKPGESLKISCKGSGYNFSNKWIGWVRQLPGRGLEWIAIIYPGYSDITYSPSFQGRVTISADTSINTAYLHWHSLKASDTAMYYCVRHTALAGFDYWGLGTLVTVSS
notes: also called Ext002 #15
- binding result [7]: no binding
- binding result [11]: binds

Binder: AMFPNAPYL [WT1A1-B peptide (AMFPNAPYL)]
- binding result [18]: binds

Binder: YMFPNAPYL [WT1-A1 heteroclitic peptide (tyrosine at position 1 of RMF)]
- binding result [18]: binds

B7: mAb 15 (mAb clone 15) (antibody, V domains shown)
VH: QVQLVQSGAEVKKPGESLKISCKGSGYNFSNKWIGWVRQLPGRGLEWIAIIYPGYSDITYSPSFQGRVTISADTSINTAYLHWHSLKASDTAMYYCVRHTALAGFDYWGLGTLVTVSS
VL: DIQMTQSPSTLSASVGDRVTITCRASQNINKWLAWYQQRPGKAPQLLIYKASSLESGVPSRFSGSGSGTEYTLTISSLQPDDFATYYCQQYNSYATFGQGTKVEIKR
notes: The legends call it mAb 15 or clone 15; also called Ext002 #15
- Kd [15]: 7.68 nM
- kon [16]: 245000 M⁻¹ s⁻¹
- koff [19]: 0.00188 s⁻¹
